{
  "source": "paper PMC9881579",
  "about": "“Reconfigurable asymmetric protein assemblies through implicit negative design” (Science (New York, N.Y.), 2022)",
  "binders": {"B1": {"name": "LHD101A (designed binder)", "chain": "GRQEKVLKSIEETVRKMGVTMETHRSGNEVKVVIKGLHIKQQRQLYRDVRETSKKQGVETEIEVEGDTVTIVVRE", "modifications": "biotin on the Avi-tag where immobilised (Fig. S3D, S24B)"}, "B2": {"name": "LHD284A (designed binder)", "chain": "TDELLERLRQLFEELHERGTIIIVEVHINGERQTKYLILAPKEELKKHLERIREKIEREGSSEVEVKVTSGGTTWTFNEK"}, "B3": {"name": "LHD202B (designed binder)", "chain": "SVEFHIVNISEEQRQRIEEYVRRISKKEGTEVRFEKRDGELTIEVKNLHEKRLQEILEYIERVNK"}, "B4": {"name": "LHD298A (designed binder)", "chain": "GRQEKVLKSIEETVRKMGVTMETHRSGNTVKVVIKGLHESQQEQLHKDVEETVQKEGVFVLVSHHGDTVTIQVYE"}, "B5": {"name": "LHD317A (designed binder)", "chain": "GRQEKVLKSIEETVRKMGVRMLTHRGGNAVIVVIEGLHPSQAEQLLRDVHRTAKKQGVTVHLVFTGDIVVIMVVVGASEEEQEEMHRLVREIAEALHEAKRKGANEEQLEQLLRELLERAEREG"}, "B6": {"name": "LHD278A (designed binder)", "chain": "GRQEKVLKSIEETVRKMGVRMLTHRGGNAVIVVIEGLHPSQIKQLMQDVIKTAKKQGVTVTITVSGDIVVIMVVVGASDEEQEEARRLVQEIARALQEAKRKGANEEQLEQLLRELLERAEREG"}, "B7": {"name": "LHD275A (designed binder)", "chain": "GRQEKVLKSIEETVRKMGVEMLTFRAGNAVIVVIRGLHPEQAKQLLRDVSQTAHKQGVTVTLTFHGDVVFILVLVGASEEEQKHMQERIQELARIIHEAKRRGVSEEQLREIAEKMAKEIQEWG"}, "B8": {"name": "LHD289A (designed binder)", "chain": "GRQEKVLKSIEETVRKMGVTMLTHRHGNVVFVVILGLHKQQALQLLRDVHRTAHKQGVTLSITFSGDIVVIAVTVGASEEEKKEVRKIVKEIAKQLRHAETEEEAKEIVQRVIEEWQEEG"}},
  "settings_in_all_cases": "both partners purified",
  "key": {"LHD101B [1]": {"target": "T1, LHD101B (biotin on the Avi-tag where immobilised (Fig. S3D))", "T1 construct": "de novo designed protomer; also called LHD101 protomer B; source: E. coli BL21 LEMO, purified (Ni-NTA, SEC)", "experiment": "BLI; biotinylated protomer on streptavidin biosensors, designed partner in solution; 25 °C; 10 mM HEPES pH 7.4, 150 mM NaCl, 3 mM EDTA, 0.05% Surfactant P20, 1 mg/ml BSA; global kinetic fit, 1:1 model"}, "LHD101B [2]": {"target": "T1, LHD101B", "experiment": "BLI; biotinylated protomer on streptavidin biosensors, designed partner in solution; 25 °C; 10 mM HEPES pH 7.4, 150 mM NaCl, 3 mM EDTA, 0.05% Surfactant P20, 1 mg/ml BSA; steady-state fit, 1:1 model"}, "LHD284B [3]": {"target": "T2, LHD284B", "T2 construct": "de novo designed protomer; BLI: one protomer of the pair was Avi-tagged, biotinylated and immobilised; also called LHD284 protomer B; source: E. coli BL21 LEMO, purified (Ni-NTA, SEC)", "experiment": "BLI; biotinylated protomer on streptavidin biosensors, designed partner in solution; 25 °C; 10 mM HEPES pH 7.4, 150 mM NaCl, 3 mM EDTA, 0.05% Surfactant P20, 1 mg/ml BSA; global kinetic fit, 1:1 model"}, "LHD284B [4]": {"target": "T2, LHD284B", "experiment": "BLI; biotinylated protomer on streptavidin biosensors, designed partner in solution; 25 °C; 10 mM HEPES pH 7.4, 150 mM NaCl, 3 mM EDTA, 0.05% Surfactant P20, 1 mg/ml BSA; steady-state fit, 1:1 model"}, "LHD202A [5]": {"target": "T3, LHD202A", "T3 construct": "de novo designed protomer; BLI: one protomer of the pair was Avi-tagged, biotinylated and immobilised; also called LHD202 protomer A; source: E. coli BL21 LEMO, purified (Ni-NTA, SEC)", "T3 sequence (main, as listed by the source)": "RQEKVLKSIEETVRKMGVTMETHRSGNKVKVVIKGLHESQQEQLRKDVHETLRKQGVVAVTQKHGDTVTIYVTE", "experiment": "BLI; biotinylated protomer on streptavidin biosensors, designed partner in solution; 25 °C; 10 mM HEPES pH 7.4, 150 mM NaCl, 3 mM EDTA, 0.05% Surfactant P20, 1 mg/ml BSA; global kinetic fit, 1:1 model"}, "LHD202A [6]": {"target": "T3, LHD202A", "experiment": "BLI; biotinylated protomer on streptavidin biosensors, designed partner in solution; 25 °C; 10 mM HEPES pH 7.4, 150 mM NaCl, 3 mM EDTA, 0.05% Surfactant P20, 1 mg/ml BSA; steady-state fit, 1:1 model"}, "LHD298B [7]": {"target": "T4, LHD298B", "T4 construct": "de novo designed protomer; BLI: one protomer of the pair was Avi-tagged, biotinylated and immobilised; also called LHD298 protomer B; source: E. coli BL21 LEMO, purified (Ni-NTA, SEC)", "experiment": "BLI; biotinylated protomer on streptavidin biosensors, designed partner in solution; 25 °C; 10 mM HEPES pH 7.4, 150 mM NaCl, 3 mM EDTA, 0.05% Surfactant P20, 1 mg/ml BSA; global kinetic fit, 1:1 model"}, "LHD298B [8]": {"target": "T4, LHD298B", "experiment": "BLI; biotinylated protomer on streptavidin biosensors, designed partner in solution; 25 °C; 10 mM HEPES pH 7.4, 150 mM NaCl, 3 mM EDTA, 0.05% Surfactant P20, 1 mg/ml BSA; steady-state fit, 1:1 model"}, "LHD317B [9]": {"target": "T5, LHD317B", "T5 construct": "de novo designed protomer; BLI: one protomer of the pair was Avi-tagged, biotinylated and immobilised; source: E. coli BL21 LEMO, purified (Ni-NTA, SEC)", "experiment": "BLI; biotinylated protomer on streptavidin biosensors, designed partner in solution; 25 °C; 10 mM HEPES pH 7.4, 150 mM NaCl, 3 mM EDTA, 0.05% Surfactant P20, 1 mg/ml BSA; global kinetic fit, 1:1 model"}, "LHD317B [10]": {"target": "T5, LHD317B", "experiment": "BLI; biotinylated protomer on streptavidin biosensors, designed partner in solution; 25 °C; 10 mM HEPES pH 7.4, 150 mM NaCl, 3 mM EDTA, 0.05% Surfactant P20, 1 mg/ml BSA; steady-state fit, 1:1 model"}, "LHD278B [11]": {"target": "T6, LHD278B", "T6 construct": "de novo designed protomer; BLI: one protomer of the pair was Avi-tagged, biotinylated and immobilised; source: E. coli BL21 LEMO, purified (Ni-NTA, SEC)", "experiment": "BLI; biotinylated protomer on streptavidin biosensors, designed partner in solution; 25 °C; 10 mM HEPES pH 7.4, 150 mM NaCl, 3 mM EDTA, 0.05% Surfactant P20, 1 mg/ml BSA; global kinetic fit, 1:1 model"}, "LHD278B [12]": {"target": "T6, LHD278B", "experiment": "BLI; biotinylated protomer on streptavidin biosensors, designed partner in solution; 25 °C; 10 mM HEPES pH 7.4, 150 mM NaCl, 3 mM EDTA, 0.05% Surfactant P20, 1 mg/ml BSA; steady-state fit, 1:1 model"}, "LHD275B [13]": {"target": "T7, LHD275B", "T7 construct": "de novo designed protomer; BLI: one protomer of the pair was Avi-tagged, biotinylated and immobilised; source: E. coli BL21 LEMO, purified (Ni-NTA, SEC)", "experiment": "BLI; biotinylated protomer on streptavidin biosensors, designed partner in solution; 25 °C; 10 mM HEPES pH 7.4, 150 mM NaCl, 3 mM EDTA, 0.05% Surfactant P20, 1 mg/ml BSA; global kinetic fit, 1:1 model"}, "LHD275B [14]": {"target": "T7, LHD275B", "experiment": "BLI; biotinylated protomer on streptavidin biosensors, designed partner in solution; 25 °C; 10 mM HEPES pH 7.4, 150 mM NaCl, 3 mM EDTA, 0.05% Surfactant P20, 1 mg/ml BSA; steady-state fit, 1:1 model"}, "LHD289B [15]": {"target": "T8, LHD289B", "T8 construct": "de novo designed protomer; BLI: one protomer of the pair was Avi-tagged, biotinylated and immobilised; source: E. coli BL21 LEMO, purified (Ni-NTA, SEC)", "experiment": "BLI; biotinylated protomer on streptavidin biosensors, designed partner in solution; 25 °C; 10 mM HEPES pH 7.4, 150 mM NaCl, 3 mM EDTA, 0.05% Surfactant P20, 1 mg/ml BSA; global kinetic fit, 1:1 model"}, "LHD289B [16]": {"target": "T8, LHD289B", "experiment": "BLI; biotinylated protomer on streptavidin biosensors, designed partner in solution; 25 °C; 10 mM HEPES pH 7.4, 150 mM NaCl, 3 mM EDTA, 0.05% Surfactant P20, 1 mg/ml BSA; steady-state fit, 1:1 model"}},
  "data": [
    {"binder": "B1", "values": [
      {"measurement": "Kd", "setting": "LHD101B [1]", "value": "1.9 ± 0.04", "unit": "nM"},
      {"measurement": "koff", "setting": "LHD101B [1]", "value": 0.0043, "unit": "s⁻¹"},
      {"measurement": "kon", "setting": "LHD101B [1]", "value": "2.2e+06", "unit": "M⁻¹ s⁻¹"},
      {"measurement": "Kd", "setting": "LHD101B [2]", "value": "9.5 ± 0.76", "unit": "nM"}
    ]},
    {"binder": "B2", "values": [
      {"measurement": "Kd", "setting": "LHD284B [3]", "value": "8.9 ± 0.13", "unit": "nM"},
      {"measurement": "koff", "setting": "LHD284B [3]", "value": 0.0012, "unit": "s⁻¹"},
      {"measurement": "kon", "setting": "LHD284B [3]", "value": 130000, "unit": "M⁻¹ s⁻¹"},
      {"measurement": "Kd", "setting": "LHD284B [4]", "value": "97 ± 13", "unit": "nM"}
    ]},
    {"binder": "B3", "values": [
      {"measurement": "Kd", "setting": "LHD202A [5]", "value": "4800 ± 250", "unit": "nM"},
      {"measurement": "koff", "setting": "LHD202A [5]", "value": "0.29 ± 0.05", "unit": "s⁻¹"},
      {"measurement": "kon", "setting": "LHD202A [5]", "value": 60000, "unit": "M⁻¹ s⁻¹"},
      {"measurement": "Kd", "setting": "LHD202A [6]", "value": "2400 ± 170", "unit": "nM"}
    ]},
    {"binder": "B4", "values": [
      {"measurement": "Kd", "setting": "LHD298B [7]", "value": "3.5 ± 0.01", "unit": "nM"},
      {"measurement": "koff", "setting": "LHD298B [7]", "value": 0.00022, "unit": "s⁻¹"},
      {"measurement": "kon", "setting": "LHD298B [7]", "value": 64000, "unit": "M⁻¹ s⁻¹"},
      {"measurement": "Kd", "setting": "LHD298B [8]", "value": "16 ± 3", "unit": "nM"}
    ]},
    {"binder": "B5", "values": [
      {"measurement": "Kd", "setting": "LHD317B [9]", "value": "34.7 ± 0.05", "unit": "nM"},
      {"measurement": "koff", "setting": "LHD317B [9]", "value": 0.0051, "unit": "s⁻¹"},
      {"measurement": "kon", "setting": "LHD317B [9]", "value": 150000, "unit": "M⁻¹ s⁻¹"},
      {"measurement": "Kd", "setting": "LHD317B [10]", "value": "56 ± 2.3", "unit": "nM"}
    ]},
    {"binder": "B6", "values": [
      {"measurement": "Kd", "setting": "LHD278B [11]", "value": "0.8 ± 0.003", "unit": "nM"},
      {"measurement": "koff", "setting": "LHD278B [11]", "value": 0.00022, "unit": "s⁻¹"},
      {"measurement": "kon", "setting": "LHD278B [11]", "value": 290000, "unit": "M⁻¹ s⁻¹"},
      {"measurement": "Kd", "setting": "LHD278B [12]", "value": "3.4 ± 0.69", "unit": "nM"}
    ]},
    {"binder": "B7", "values": [
      {"measurement": "Kd", "setting": "LHD275B [13]", "value": "2.9 ± 0.01", "unit": "nM"},
      {"measurement": "koff", "setting": "LHD275B [13]", "value": 0.00041, "unit": "s⁻¹"},
      {"measurement": "kon", "setting": "LHD275B [13]", "value": 140000, "unit": "M⁻¹ s⁻¹"},
      {"measurement": "Kd", "setting": "LHD275B [14]", "value": "4.5 ± 0.22", "unit": "nM"}
    ]},
    {"binder": "B8", "values": [
      {"measurement": "Kd", "setting": "LHD289B [15]", "value": "1080 ± 39", "unit": "nM"},
      {"measurement": "koff", "setting": "LHD289B [15]", "value": 0.057, "unit": "s⁻¹"},
      {"measurement": "kon", "setting": "LHD289B [15]", "value": 53000, "unit": "M⁻¹ s⁻¹"},
      {"measurement": "Kd", "setting": "LHD289B [16]", "value": "610 ± 120", "unit": "nM"}
    ]}
  ]
}
